assay: soluble on expression in E. coli; label from the status in PepcDB or PDB records

Soluble on expression in E. coli, not soluble:
MGSDKIHHHHHHMKLIESVPNFSEGRRKEVVEKIVAEAKKYDRVWVLDWSMDADHNRSVITLVGEPENLINALFDMTKKAAELIDLRNHTGQHPRMGAADVIPLVPLYNTTMEECVEYSKILGRRIGEELGIPVYLYEKSATRPERQNLADIRKGEFEGFFEKIKDPLWKPDFGPDRVHPTAGVTAVGAREFLIAFNVNLGTRDVKIAEKIARAIRFSSGGLRYVKAIGVDLKGRGVVQVSINITNHKKTPLYRVFELIKMEAERYGVPVLGSEIVGLFPLESLLKTVSYYLRTDLNAKKVIESNLLEILVRESEK
MGSDKIHHHHHHMKLIINADDFGFTRAINYGIIDAHNLGVLTSTTLMVTMPAFEHAVDLSKKTPTLGIGLHLNLTLGKPLTNGATLVNEDGELIKPKFTTPEYPYNEEEVYQEFKAQYHRFTEFMKKKPSHLDSHLFSTDIYPVVTSAAKRLAEEIGIPLRNHDTKGFEHVEFMWEKPLEIPYGEYDNLDYIYDNAASILCYDYVEIMTHPGYLDTFILENSTFSTPRANELESLISPRMRQFLNENNVELISYHDIPKK
MGSDKIHHHHHHMKLLILGNHTCGNRGDSAILRGLLDAINILNPHTEVDVMSRYPVSSSWLLNRPVMGDPLFLQMTQHNSAAGVVGRIKKVLRRRYQHQVLLSRVTDTGKLRNIAIAQGFTDFVRLLSGYDAIIQVGGSFFVDLYGVPQFEHALCTFMAKKPLFMIGHSVGPFQDEQFNQLANYVFGHCDALILRESVSLDLMKRRNITTAKVEHGVDTAWLVDHHTEDFTASYAVQHWLDVAAQQKTVAITLRELAPFDKRLGTTQQAYEKAFAGVVNRILDEGYQVIALSTCTGIDSYNKDDRMVALNLRQHISDPARYHVVMDELNDLEMGKILGACELTVGTRLHSAIISMNFATPAIAINYEHKSAGIMQQLGLPEMAIDIRHLLDGSLQAMVADTLGQLPVLNARFNEAVSRERQTGMQMVQSVLERIGEVK
MGSDKIHHHHHHMKLNTIDYLAPDSAERFVESLRETGFGVLSNHPIQKQLVEDIYKEWYNFFQSEQKHDFLFKSETHDGFFPASISETAKGNNVKDIKEYYHVYPWGRIPDSLRANILAYYEHANTLAAELLSWIEKYTPADVAEKYSIPLPDMIAQSQQTLLRILHYPPMKGDEEMGAIRAAAHEDINLITILPAANEPGLQVKTKTGEWIDVPSDFGSIIINIGDMLQEASGGYFPSTSHRVINPEGTDKTKSRISLPLFLHPNPEVVLSERYTADSYLQERLRELGVI
MGSDKIHHHHHHMKLSPTAQPFLHLHNLFILHQKVLVVKPMKELFPGLKRFRAYLNTAGLGLMPLTVYQKVNEFLLDVINYEDGINAVEILDELYFNPMLKKAAKLMKTNPENITVSLQTTDGLKRILTSLTPKKGMKIVSFDLEFPTISAILKSYAKRHGLEVKVIGNKGGLYYMEDVERVIDDNTFAVVFSDVQWITGQRMPTKEIAGVAHEHGAWVIVDAVQSLGALEVYPEKMEVDALVAGGEKWLLNPNTGSGVMWISEELIEVSEPILGLLNTQPEVPWSEWWGDERKDVWDILPVRKDARKLDPGTPPYVSIVALDASLELINSVGIEKIEKHDMKLAKRVREYAYELGVTALGSSQITLLRLGVDYVKQREIVKNLEEKGIVVSLRGAKGIFGIRVSPHLYNTEDDIVTLFDELSKFF
MGSDKIHHHHHHMKLTILTDNRAAPGLTCEHGFAVLIETGGKRILFDTGQLTAIDANCRALGIDLSDIDIIVLSHGHYDHTGNLADVLRIADRATLYLHPSALIERYSIRNDKPKPIDMPETAKQAINGLPKERVVWVTEPTRLTDGAFLTGPVPRQTTFEDTGGPFFFDPDGKTPDPIEDDLSLWIEKPEGLIVLAGCCHAGIVNTLDYIESITGQKRIATLIGGMHLSAASPERLNRTVASLANRDISRLIACHCTGQAAVERFSKELPYPVEAGYAGMVVESANE
MGSDKIHHHHHHMKMETGKLLMELSNLDGPSGYETNVVSYIKSVIEPFVDEAKTTRHGSLIGYKKGKGIGKLAFFAHVDEIGFVVSKVEGQFARLEPVGGVDPKVVYASKVRIYTKNGIERGVIGMLAPHLQDSESRKKVLTYDEIFVDLSLCERDVRVGDIAVIDQTAFETNGKVVGKALDNRASCGVLVKVLEFLKRYDHPWDVYVVFSVQEETGCLGALTGAYEINPDAAIVMDVTFASEPPFSDHIELGKGPVIGLGPVVDRNLVQKIIEIAKKHNVSLQEEAVGGRSGTETDFVQLVRNGVRTSLISIPLKYMHTPVEMVDPRDVEELARLLSLVAVELEV
MGSDKIHHHHHHMKNKVGIMYDNISGNTGDVAIGISLRKIMKELKVDFDEILLNNIDVLKYNTVIIGGGHLLRENSDFFYDKFKLRGPNILNSVGVVGNPNDLQYLEEYKYVTFRSEGDRKKAGYLNKKSSVVPCTTMLLDDLQDFPIHIKRPAIGVHLIPNIFSKEEEGLFVKWASKLPYTIYFIPITHYNYDYIYMSKLSQRISNSRVLPIMKPLEIFTFIGKLDYLITCSLHGSIFSYIHNVPFILMEQEKSRFFLEDRGLQGYLFSNLKEIIGLTEKVINNPLDYSNLIVKDKKILEEHVENIKQIVPNNSTYILSKECTESDEITQLNLQNGILQINLSKLTYELEAYKKEIKGINFRLKDEESKHMYYKKELKKIYRSRGWKALKKFYSLKDFISKKINGA
MGSDKIHHHHHHMKNRFLIICTVLFLSSCLAYGQEQASVTNDFSENKQGCIQHPWQGKKVGYIGDSITDPNCYGDNIKKYWDFLKEWLGITPFVYGISGRQWDDVPRQAEKLKKEHGGEVDAILVFMGTNDYNSSVPIGEWFTEQEEQVLSAHGEMKKMVTRKKRTPVMTQDTYRGRINIGITQLKKLFPDKQIVLLTPLHRSLANFGDKNVQPDESYQNGCGEYIDAYVQAIKEAGNIWGIPVIDFNAVTGMNPMVEEQLIYFYDAGYDRLHPDTKGQERMARTLMYQLLALPVAF
MGSDKIHHHHHHMKPLADRIRPENFNEVFGQKHIIGEGKILDRILKSSLVPNMIFYGPPGTGKTTVANIIAKKTNKAFYKLNATTASVKDVREITDSTNTLMGRNGVLLYLDEIQNFNKKQQQSLLEFMENGSITLIASTTENPYFYVYNAILSRSTIFEFKPLESDELMKAVNRAVELIKDELKTTEIIITEDAKKYAVGVSSGDVRKTLNSIEIAVYSTKPNEEGNIFIDLETMKECTQKNVLNFDKDGDNHYDILSAFQKSIRGSDADAAVLYLAMLIKGGDLKSICRRLLVIAAEDIGLAYPQAISIVKACTDSALELGFPEARIPLAEAVILLATSPKSNSAITAVDSALRDLDTINVGSIPDYLRDGHYEGAKKLGRMQDYKYPHSYENNYVKQKYLPSNLENRRYYEYGKNKIEEKCREYWERIKY
MGSDKIHHHHHHMKPLPAQAIWFTAPHTVSIREEIAPPPAYGDVRIAAIASLISHGTERLVYRGEVDPTLALDLPTLQGSFAFPIKYGYAIAGRVIDIGPGVEQFQIGDPVAALHPHQTIFTLPAHLVKRLPDTLDPALGGFYANVETALTICHDAAPRLGETVVVLGQGVVGLLVTQLLQRTGAQVIAVEPDAHRRALATQFGATTLAQADPATIAELTDGRGADIVVEVSGSPAALQQAIELTATEGLVVVASWYGQKPAPLILGGHFHRGRVRLRSSQVGRLAPETLPRWDYARRSATVMNLLPRLCLNELISHRIPFVQAAAAYDLLDQAPPGLVQVMLTYADYAPQT
MGSDKIHHHHHHMKQDTIHINGLSIGYHSKSSTKLVAKGIHSTIYSGELTCLLGANGVGKSTLLRTLSAFQPKLDGEILVLGKDIDTYSDKELSTTIGVVLTDKCEIRNMLVRELVGMGRSPYTGFWGKLSKDDKRIVEESIALVRIEELASRMVHTLSDGERQKVMIAKALAQETPVIYLDEPTAFLDFPSKVEIMQLLHHLTRKTNKTIFMSTHDLELALQISDKIWLMDKANGISTGTPEDLALSGHLSNFFARKGIVFDKDTGLFRIDNQFSRQIRLVGHGQKYAMVRKGLQRNGILANREVESNIWIETGDLKTTHFIIHETSGGTYITQTIEELLAYFDTEKS
MGSDKIHHHHHHMKQLGLGLNLSTKKTRKREFLEDMERVVPWAVLVQIVAPHYPKAKTGRPPFGIETMLRIHYLQQWFGLSDPAMEEALHDVPLYREFAKLDSVTARLPDETTILRFRHLLERHNLAVDMLRVVNDLLQHKGLMMRTGTAVDATLISAPSSTKNAEGERDPEMKQTRKGNNWYFGMKAHIGVDAQSGLVHTVATTGANVNDLNMAGALLHGDEEAAFGDAGYQGVHKRPEAKGPTWHVAMRPGLRRKLNPFIEPDFIAERIEKMKASIRAKVEHPFRVIKRQFGFTKVRYRGLKKNTAQIVTLFALSNLWMARRQLIGARG
MGSDKIHHHHHHMKRILFISPTTSMDNGAEKSIYYLMKHLIQLGHTVINVTHAIGGEPQDKHEQLYKMIGVKNYYLPTVKWWWPDAPGGEILNREEATSYYRQNVQDIAEIIDQNEIDLVISNTVNVFQGAIAASCQKVPHFWLIHEFPKNEFAYYADKIDFIEEYSSELFSVTGELNNFLTPLFNKKVHSFISYTEQETKVLKKGNQVRIVSVGRLTEGKNQLELIKAYKTLNRLDIELVFIGGWDSKYKAICDEYIHENKLQKNVKFLGNLDNPWEEVTDRDICVFPSSMETFGLVYVEAILRGLPVILSDNLGHLTAFEIFSAGQIYKLGDIEELVTKLEQVIESFRNFSDRARLDVERLRTLYTPEVAYKEILNSINHLEYTGHQNTNLSHIKELLTLNMHPTRLERYARLISNMATKIRHKLRL
MGSDKIHHHHHHMKRPISQQSVQVALGQAALPVGVLTFNKDGARESSTFAYHEAWLRSADRFEISPDLQLVQGQQFRKAPSRDDSIFPFAFADTEPDGWGCRVIARDHARRRKSAQEKGRDVPHAGLTEMDYLLGVDDLSRIGALRLADEAGNYLRSIEDGGRGTPPLLELGHLIGATRAVEMNRETAADLKYLRGRGTSLGGMRPKCTILDEDGQLAIGKFPSINDDRSVTRGEVLALHLAAAAGITVAQSRIVMSEEIPVALVRRFDRVTNGGRIPYLSAGSMLQASRQEEHAYTQIADCIIARCADPKRDLEELWRRLVFNLLITNVDDHVQNHGFLHVEHGLWRLAPAFDINPFPDKDPELKLWLNEDYGPVDSIEAVMNEARYFRLSADEAKRILGEVRNAVGDWKRVAKSAPVGMTDDDLDAFQPAFENGQTEAAAALL
MGSDKIHHHHHHMKRVISLIDMDCFYAQVEQRDNPSLWGQPVIVVQHSRQGIEGGILAVSYEARPFGVKRGMTVAEAKLKCPQISICHVPIGEYVDKADIQKYRDASAEVFRVLNNYDSQIIIEKASVDEAFLDLSAYTNQKLQELRENEGLEEFLQAAITYLPTTHLATGEDVKENEHLREDVLLEYIENARNCTENLLLLIAAVTVEQIRQQIHEETQFFCSAGVGNNKMMAKLVCARHKPRQQTLIPWFYVREILRLTPIGDVRGFGGKMGNRIQEMLNITVRKRKYSKFQVIFRIFIEKLSEMSEICNFRRFYTIFKYFSLNLEIWKYSKKNQFFLAKKKEILRFSQLKIRKFEFPVTFYPRNPLMGELLEVDISQLIE
MGSDKIHHHHHHMKSIKAADLHAAVRDMIMDANRVLGKDVYNAFQTCMQQETTDSGKEVLRQLLENADLAAQSGLALCQDTGVAVFFVEMGEEVRMEGGGLKETLNAAMVEAYNKAFLRKSMCHPLTRKNTGDNTPAVIHVELVPGDTLKVRYMAKGGGSENMSRCTMLTPAQGWQGIKDFVVRRMAEAGPNPCPPTIVGVGIGGTFDLAPSLAKGALFRRVDDVHPDPEIAAMEKELLDEINALGIGPMGLGGKTTCLAVKIAMHPCHIASLPLAVNVQCHSSRHKEVVF
